Where a chain is given by its changes, count along the chain named. Names may count otherwise.
B1: wild-type FokI restriction endonuclease (enzyme, UniProt P14870 1-579, looked up)
chain: MVSKIRTFGWVQNPGKFENLKRVVQVFDRNSKVHNEVKNIKIPTLVKESKIQKELVAIMNQHDLIYTYKELVGTGTSIRSEAPCDAIIQATIADQGNKKGYIDNWSSDGFLRWAHALGFIEYINKSDSFVITDVGLAYSKSADGSAIEKEILIEAISSYPPAIRILTLLEDGQHLTKFDLGKNLGFSGESGFTSLPEGILLDTLANAMPKDKGEIRNNWEGSSDKYARMIGGWLDKLGLVKQGKKEFIIPTLGKPDNKEFISHAFKITGEGLKVLRRAKGSTKFTRVPKRVYWEMLATNLTDKEYVRTRRALILEILIKAGSLKIEQIQDNLKKLGFDEVIETIENDIKGLINTGIFIEIKGRFYQLKDHILQFVIPNRGVTKQLVKSELEEKKSELRHKLKYVPHEYIELIEIARNSTQDRILEMKVMEFFMKVYGYRGKHLGGSRKPDGAIYTVGSPIDYGVIVDTKAYSGGYNLPIGQADEMQRYVEENQTRNKHINPNEWWKVYPSSVTEFKFLFVSGHFKGNYKAQLTRLNHITNCNGAVLSVEELLIGGEMIKAGTLTLEEVRRKFNNGEINF
B2: N13Y variant of the FokI endonuclease (enzyme, UniProt P14870 1-579, looked up)
chain: B1 chain with N13Y

Tests used:
[1] = target: the molecule itself; assay: single-turnover enzyme kinetics
[2] = target: B1; assay: steady-state enzyme kinetics

Row | Binder | Kd [1] [nM] | Kd [2] [nM]
1 | B1 | 99 ± 19 | –
2 | B2 | – | 166 ± 73

Reference: publication PMC1410913 (Nucleic Acids Research, 2006)
